By stoichiometry N is commonly meant a count of units in the complex or per binding partner.

The chains are these.
B2: PriL, primase large noncatalytic subunit, recombinant (natural protein, S. solfataricus, UniProt Q9UWW1 1-307, looked up)
chain: MALDVKKYPFIKSLDDELKKYGGGITLTDLLLNSTTLIDQAKDRIQKTKSGDELPHYVSYNEPVLVFYTTLLSLAILNDVKLIRRYAYAEAKQFRSLLHTENEENLLEISKLLDLKINRCDPIKFYLEKKRRIIQKEFCVHFIDYLKYTKDLKEDWKLSGQILHKGYVYLDKNQLIGLIAESIKSKIVEMIRPLNLKEIPEKLKSLIERRGIIPPCIENILAKEKLNEEEIRTLITFYIDIGKGLSGIVSIMKKYNVSNVEDLYRKYRGDKGTRYIVYSCAKMKQLGLCVSSCNVKNPLQLYFLSNE

The target of assay [1] is B2. In words: ITC. (In general: ITC needs no label: the signal is the heat of the interaction.)
Assay [2] addresses T1, PriSL heterodimer (PriS and PriL), recombinant (S. solfataricus, UniProt Q97Z83 1-330; Q9UWW1 1-307).
T1 sequence (looked up) 1: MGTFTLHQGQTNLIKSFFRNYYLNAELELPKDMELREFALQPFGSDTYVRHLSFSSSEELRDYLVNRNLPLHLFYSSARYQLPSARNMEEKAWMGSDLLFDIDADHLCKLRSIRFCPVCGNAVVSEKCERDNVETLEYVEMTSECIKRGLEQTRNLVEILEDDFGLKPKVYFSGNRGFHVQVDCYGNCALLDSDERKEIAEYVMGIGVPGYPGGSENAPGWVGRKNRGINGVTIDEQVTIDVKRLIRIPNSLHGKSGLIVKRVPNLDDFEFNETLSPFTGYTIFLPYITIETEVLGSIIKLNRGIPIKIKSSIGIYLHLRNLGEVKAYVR
T1 sequence (looked up) 2: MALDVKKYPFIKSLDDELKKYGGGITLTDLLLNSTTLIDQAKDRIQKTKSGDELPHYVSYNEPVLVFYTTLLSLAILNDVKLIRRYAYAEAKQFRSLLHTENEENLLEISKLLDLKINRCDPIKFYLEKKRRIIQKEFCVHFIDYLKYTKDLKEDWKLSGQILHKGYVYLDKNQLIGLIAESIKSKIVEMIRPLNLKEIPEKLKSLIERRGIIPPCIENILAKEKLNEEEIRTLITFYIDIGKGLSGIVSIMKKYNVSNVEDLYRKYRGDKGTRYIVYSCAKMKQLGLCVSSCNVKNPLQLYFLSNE
Nature of the assay: SEC.

In assay [3] the target is T2, PriS, primase catalytic subunit, recombinant (S. solfataricus, UniProt Q97Z83 1-330).
T2 sequence (looked up): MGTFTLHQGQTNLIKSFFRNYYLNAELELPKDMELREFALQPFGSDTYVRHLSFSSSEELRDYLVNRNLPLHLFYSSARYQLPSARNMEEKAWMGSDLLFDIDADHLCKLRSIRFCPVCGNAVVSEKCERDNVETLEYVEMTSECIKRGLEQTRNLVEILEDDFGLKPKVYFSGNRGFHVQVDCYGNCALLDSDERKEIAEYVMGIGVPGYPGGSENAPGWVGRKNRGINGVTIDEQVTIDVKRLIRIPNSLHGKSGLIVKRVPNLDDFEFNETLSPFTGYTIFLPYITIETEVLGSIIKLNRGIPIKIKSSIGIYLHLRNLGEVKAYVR
Nature of the assay: SEC. In general terms: Size exclusion chromatography separates by hydrodynamic size, large species first.

B1: PriX (product of Sso0502), recombinant full-length protein (natural protein, S. solfataricus, UniProt Q97ZS7 1-154, looked up)
chain: MSQEKKAKKIILHYPDDTPAGYIEYAEGSSSIYDNEGNFLFKVEGKFPPQPKKSSDYSWIEKVLEMGLQDSRKRFILYVASRYLVNVKGVNEDEALQTLKEFYYKLQSGKVYESWLKSVINGVKKKGLLPWSLKRIEERDKEMYNEIIRVLKNS
For B1, in assay [1], the “stoichiometry N” value amounted to 1. For the same molecule, in assay [2], the binding result is “binds”.

Consider B2, for which, in assay [3], the binding result was “binds”.
